# According to paper PMC4960319:
# Tests used:
# [1] = target: σ^R (sigma factor SigR) from Streptomyces coelicolor, residues 5-227, tagless (Streptomyces coelicolor) (UniProt Q7AKG9); assay: ITC; RsrA mutants (values in Supplementary Table 1); 35 °C, 50 mM Tris pH 7.5, 100 mM NaCl, 2 mM DTT; direct titration for weaker binding mutants (10 μM RsrA in the cell, 100 μM σ^R in the syringe); RsrA preincubated with ZnCl2 and buffer exchanged where zinc was included
# [2] = target: σR (residues 5-227) (Streptomyces coelicolor) (UniProt Q7AKG9); assay: ITC; with zinc (+), RsrA preincubated with 1 mM ZnCl2 and buffer exchanged; direct titration for weaker binding mutants (methods: 10 μM RsrA in the cell, 100 μM σR in the syringe); 35 °C, 50 mM Tris pH 7.5, 100 mM NaCl, 2 mM DTT; single binding site model
fold weakening of binding to σ^R against RsrA [1] [fold],Kd [2] [nM],Substance
> 100,–,RsrA Val54Ala Leu57Ala (from UniProt Q7AKG8 1-105) (natural protein)
> 100,–,RsrA Val75Ala Leu79Ala (from UniProt Q7AKG8 1-105) (natural protein)
–,557,RsrA* C41S (from UniProt Q7AKG8 4-105) (natural protein)
